Reference: the supplement of paper PMC7125110
± gives the standard error. Variants at the floor of the assay were thinned out.

B1: glmS ribozyme (parent)
chain: AUAAAAGCGCCAGAACUACAGAAAUGUAGUUGACGAGGAGGAGGUUUAUCGAAUUUUCGGCGGAUGCCUCCAAA

Experiments:
Details in all cases: with glucosamine-6-phosphate
[1] = variants of: B1; assay: self-cleavage kobs at 640 uM GlcN6P; higher = faster cleavage; RNA array
Procedure, shortened: (§1)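 Sequenced MiSeq chips were the platform: E. coli RNA polymerase transcribed barcoded ribozyme variants on them in situ, and a hybridised Cy3 probe tracked these at 37 °C. After glucosamine-6-phosphate (40 μM to 10 mM) in HEPES/KCl/Mg(OAc)2 buffer was flowed in, tiles were imaged over ~14 h. Signals normalised to baseline and to non-cleaving reference variants were reduced to per-tile medians and fit to one- or two-exponential decays to obtain kobs. kcat and KM were derived through weighted Michaelis–Menten fits across concentrations.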

[2] = variants of: B1; assay: self-cleavage kobs at 2500 uM GlcN6P; higher = faster cleavage; RNA array
Procedure, shortened: as §1

[3] = variants of: B1; assay: self-cleavage kobs at 10000 uM GlcN6P; higher = faster cleavage; RNA array
Procedure, shortened: as §1

A15G A48G
self-cleavage kobs at 640 uM GlcN6P [1]: 4.16e-05 ± 1.4e-05 s⁻¹ | self-cleavage kobs at 2500 uM GlcN6P [2]: 0.000216 ± 4e-05 s⁻¹ | self-cleavage kobs at 10000 uM GlcN6P [3]: 8.59e-05 ± 1.3e-05 s⁻¹

A12U C16A C50A A64G
self-cleavage kobs at 640 uM GlcN6P [1]: < 1e-05 s⁻¹

G13C G37U A39U
self-cleavage kobs at 640 uM GlcN6P [1]: < 1e-05 s⁻¹ | self-cleavage kobs at 2500 uM GlcN6P [2]: < 1e-05 s⁻¹

G13U G62C C70U
self-cleavage kobs at 640 uM GlcN6P [1]: < 1e-05 s⁻¹

G13C G37U G60U
self-cleavage kobs at 640 uM GlcN6P [1]: < 1e-05 s⁻¹

C11U U47A A53G U56A C70G
self-cleavage kobs at 640 uM GlcN6P [1]: 5.74e-05 ± 1.8e-05 s⁻¹ | self-cleavage kobs at 2500 uM GlcN6P [2]: 0.000104 ± 3.4e-05 s⁻¹

G13C U31G C61U U69C
self-cleavage kobs at 640 uM GlcN6P [1]: < 1e-05 s⁻¹

A14U A36C U47C
self-cleavage kobs at 640 uM GlcN6P [1]: < 1e-05 s⁻¹

G13C A33C
self-cleavage kobs at 640 uM GlcN6P [1]: < 1e-05 s⁻¹ | self-cleavage kobs at 2500 uM GlcN6P [2]: < 1e-05 s⁻¹

A14G C16G U30C
self-cleavage kobs at 640 uM GlcN6P [1]: 9.39e-05 ± 1.9e-05 s⁻¹

A15U G38U G63U
self-cleavage kobs at 640 uM GlcN6P [1]: < 1e-05 s⁻¹

A12U G59C U69A
self-cleavage kobs at 640 uM GlcN6P [1]: 0.00122 ± 0.00048 s⁻¹

C11U G13A A48G U56C
self-cleavage kobs at 640 uM GlcN6P [1]: < 1e-05 s⁻¹

A15U G66C C68A
self-cleavage kobs at 640 uM GlcN6P [1]: 8.24e-05 ± 3.9e-05 s⁻¹ | self-cleavage kobs at 2500 uM GlcN6P [2]: 6.09e-05 ± 2.8e-05 s⁻¹

A12C A48C G60C G62C C68A
self-cleavage kobs at 640 uM GlcN6P [1]: < 1e-05 s⁻¹

G13U C61U C70G
self-cleavage kobs at 640 uM GlcN6P [1]: < 1e-05 s⁻¹

C16A A36G U65G C71U
self-cleavage kobs at 640 uM GlcN6P [1]: < 1e-05 s⁻¹

A12C A14U C16G G35C G62U
self-cleavage kobs at 640 uM GlcN6P [1]: < 1e-05 s⁻¹

G13U G32A A36G G38U
self-cleavage kobs at 640 uM GlcN6P [1]: < 1e-05 s⁻¹

A14G G40U C61G
self-cleavage kobs at 640 uM GlcN6P [1]: < 1e-05 s⁻¹ | self-cleavage kobs at 2500 uM GlcN6P [2]: < 1e-05 s⁻¹

C11U A36C G43U C71A
self-cleavage kobs at 640 uM GlcN6P [1]: < 1e-05 s⁻¹

G13U C50A U69G
self-cleavage kobs at 640 uM GlcN6P [1]: 0.000105 ± 3.4e-05 s⁻¹ | self-cleavage kobs at 2500 uM GlcN6P [2]: 5.37e-05 ± 1.8e-05 s⁻¹

A14U A15G C16A A52U A53U
self-cleavage kobs at 640 uM GlcN6P [1]: < 1e-05 s⁻¹

G13U G60U C68A C71A
self-cleavage kobs at 640 uM GlcN6P [1]: < 1e-05 s⁻¹ | self-cleavage kobs at 2500 uM GlcN6P [2]: < 1e-05 s⁻¹

G13A U49A U69A
self-cleavage kobs at 640 uM GlcN6P [1]: 0.00011 ± 3.1e-05 s⁻¹

A12U G32A G41C G62U C68U
self-cleavage kobs at 640 uM GlcN6P [1]: < 1e-05 s⁻¹ | self-cleavage kobs at 2500 uM GlcN6P [2]: < 1e-05 s⁻¹

C11U G41U U45C
self-cleavage kobs at 640 uM GlcN6P [1]: < 1e-05 s⁻¹

A14C C34U U54C
self-cleavage kobs at 640 uM GlcN6P [1]: < 1e-05 s⁻¹ | self-cleavage kobs at 2500 uM GlcN6P [2]: < 1e-05 s⁻¹ | self-cleavage kobs at 10000 uM GlcN6P [3]: < 1e-05 s⁻¹

A15C G38U C58A
self-cleavage kobs at 640 uM GlcN6P [1]: < 1e-05 s⁻¹

C11G C34U U69G
self-cleavage kobs at 640 uM GlcN6P [1]: 0.000508 ± 0.00017 s⁻¹

A12G G37U A48G
self-cleavage kobs at 640 uM GlcN6P [1]: < 1e-05 s⁻¹ | self-cleavage kobs at 2500 uM GlcN6P [2]: < 1e-05 s⁻¹

A15U C50G C71G
self-cleavage kobs at 640 uM GlcN6P [1]: 0.000108 ± 2.6e-05 s⁻¹ | self-cleavage kobs at 2500 uM GlcN6P [2]: 0.000148 ± 5.1e-05 s⁻¹

G13A A48U U54C
self-cleavage kobs at 640 uM GlcN6P [1]: < 1e-05 s⁻¹

A14U U46C C70U
self-cleavage kobs at 640 uM GlcN6P [1]: 0.000206 ± 5e-05 s⁻¹

A15G G35C A42U C50G C68A C71U
self-cleavage kobs at 640 uM GlcN6P [1]: < 1e-05 s⁻¹ | self-cleavage kobs at 2500 uM GlcN6P [2]: < 1e-05 s⁻¹

A15C G29U U55A
self-cleavage kobs at 640 uM GlcN6P [1]: 0.000758 ± 0.0002 s⁻¹

A14G U45G C50G C68G
self-cleavage kobs at 640 uM GlcN6P [1]: < 1e-05 s⁻¹
